The data set can be described thus: Specific activity of α-olefin and α/β-hydroxy fatty acid formation by purified enzymes. The class given is biochemical. The following applies: 500 μM H2O2, 200 μM potassium hexadecanoate. On the procedure:
The specific activity of α-olefin formation as well as α-(2) and β-(3)hydroxy fatty acid formation were determined for ORF880, CYP152A1, and CYP152A1 Q85H (see Examples 12 and 16). An E. coli BL21 strain (DE3) (Invitrogen) was transformed with either pET15b-orf 880, pET15b-cyp152A1, and pET15b-cyp152A1 Q85H using routine chemical transformation techniques. Protein expression was carried out by first inoculating a colony of the E. coli strain in 5 mL of LB media supplemented with 100 mg/L of carbenicillin and shaken overnight at 37° C. to produce a starter culture. This starter culture was used to inoculate 0.5 L of LB media supplemented with 100 mg/L of carbenicillin. The culture was shaken at 37° C. until an OD600 value of 0.6 was reached. The culture was placed on ice for 10 min before IPTG was added to a final concentration of 250 μM. The culture was shaken at 25° C. for approximately 18 h, and then centrifuged at 3,700 rpm for 20 min at 4° C. The pellet was then resuspended in 10 mL of buffer containing 100 mM sodium phosphate buffer at pH 7.2 supplemented with Bacterial ProteaseArrest (GBiosciences). The cells were then sonicated at 12 W on ice for 9 sec with 1.5 sec of sonication followed by 1.5 sec of rest. This procedure was repeated 5 times with one min intervals between each sonication cycle. The cell free extract was centrifuged at 10,000 rpm for 30 min at 4° C. 5 mL of Ni-NTA (Qiagen) was added to the supernatant, and the mixture was gently stirred at 4° C. The slurry was passed over a column removing the resin from the lysate. The resin was then washed with 30 mL of buffer containing 100 mM sodium phosphate buffer at pH 7.2 plus 30 mM imidazole. Finally, the protein was eluted with 15 mL of 100 mM sodium phosphate buffer at pH 7.2 plus 250 mM imidazole. The protein solution was dialyzed with 200 volumes of 100 mM sodium phosphate buffer at pH 7.2 with 20% glycerol. Protein concentration was determined using the Bradford assay (Biorad). 578 μg/mL of ORF880, 865 μg/mL of CYP152A1, and 653 μg/mL of CYP152A1 Q85H protein was obtained.
To determine the specific activity with potassium hexadecanoate, the following reactions were set-up where each time point consisted of 500 μL. Each reaction contained of 500 μM H2O2, 200 μM of potassium hexadecanoate, 100 mM sodium phosphate buffer at pH 7.2, and protein at the following concentrations: ORF880-0.23 or 0.46 μM; CYP152A1-8.65, 17.3, or 34.6 μM; CYP152A1 Q85H-6.53, 13.06, or 26.12 μM. The reactions were carried out at room temperature and time points were taken at 0, 1, 3, 5, 7, 10, 14, and 20 minutes. Reactions were quenched with 50 μL of 12 M HCl and then extracted with 200 μL of ethyl acetate. 50 μL of this extract was then reacted with 50 μL N,O-Bis(trimethylsilyl)trifluoroacetamide with trimethyl-chlorosilane (Aldrich). Samples were analyzed using GC/MS using the following parameters: run time: 20 min; column: HP-5-MS Part No. 190915-433E (length of 30 meters; I.D.: 0.25 mm narrowbore; film: 0.25 μM); inject: 1 μL Agilent 6850 inlet; inlet: 300° C. splitless; carrier gas: helium; flow: 1.3 mL/min; oven temp: 100° C. hold 5 min, 320° C. at 20° C./min, 320° C. hold 5 min; det: Agilent 5975B VL MSD; det. temp: 300° C.; scan: 50-500 M/Z. Calibration curves were generated using 1-pentadecene, α(2)-hydroxyhexadecanoic acid, and β(3)-hydroxyhexadecanoic acid dissolved in ethyl acetate and derivatized as described herein.
Based upon this analysis, product formation was determined to be linear within the first three minutes. The specific activities for each enzyme concentration in the linear range were averaged for a given reaction (e.g., decarboxylation, α-hydroxylation, or β-hydroxylation). FIG. 21 summarizes the results. The specific activity for 1-pentadecene formation was similar for ORF880 and CYP152A1. Mutating the glutamine 85 residue to a histidine increased the specific activity of 1-pentadecene formation (i.e., increased fatty acid decarboxylase activity). […]

B1: ORF880: olefin-producing enzyme (fatty acid decarboxylase) from Jeotgalicoccus sp. ATCC 8456, SEQ ID NO:2 (protein)
chain: MATLKRDKGLDNTLKVLKQGYLYTTNQRNRLNTSVFQTKALGGKPFVVVTGKEGAEMFYNNDVVQREGMLPKRIVNTLFGKGAIHTVDGKKHVDRKALFMSLMTEGNLNYVRELTRTLWHANTQRMESMDEVNIYRESIVLLTKVGTRWAGVQAPPEDIERIATDMDIMIDSFRALGGAFKGYKASKEARRRVEDWLEEQIIETRKGNIHPPEGTALYEFAHWEDYLGNPMDSRTCAIDLMNTFRPLIAINRFVSFGLHAMNENPITREKIKSEPDYAYKFAQEVRRYYPFVPFLPGKAKVDIDFQGVTIPAGVGLALDVYGTTHDESLWDDPNEFRPERFETWDGSPFDLIPQGGGDYWTNHRCAGEWITVIIMEETMKYFAEKITYDVPEQDLEVDLNSIPGYVKSGFVIKNVREVVDRT
modifications: Jeotgalicoccus sp. ATCC8456
As for B1, the “rate of hydroxyhexadecanoic acid production relative to the rates of the two CYP152A1 enzymes” value is reported as “about 1/50”. For the same molecule, where the note is “pH 7.2, room temperature, comparison between enzymes”, the “specific activity for 1-pentadecene formation” value is “similar”.

(Values after patent US8597922B2, “Methods and compositions for producing olefins” (LS9, Inc., priority 2007, dated 2013).)
